Test results taken from the DeepSol protein solubility set.

Assay: soluble on expression in E. coli; label from the status in PepcDB or PDB records

Sequence | soluble on expression in E. coli
MGSDKIHHHHHHMSQRENPQNSSQDVADLLGGAFAGHTMQRLRTPDGKYRYSYVSSGVQASFGLDPEALMQLQDVDHSWLHPADRSLFIAALEQSAAALTRLDEEVRVSLDDGTFKWVRSIGNPRRMRDGTVIWDGVALDVTDRHEASEALERTLTQVRQNETSEGRFSYIAASDVLDRLSSLRAAVEQLDLSVPTAAHVHAVFQKFERGLFAARDLLDDTALDETRPTDHEPHKDISATLTPRQQDILGHVSRGATNRDIARAMDISEGTVKLHISAILKRTGAQNRTEAALAWTSSNGTPRR | not soluble
MSLSGETLYQQLVNEWMELIRNGTVRPGERLPSVRKACAMHKVSPSTILQTYRMLEDRGLIEARPQSGFYVKSAASLPLPRMRRQSAAHHTGEVVDQIEAVMGVQSQADFIDLALASPRGSDFYPTTRFKHIMGRLLRQHPELTTDYPFPPGSERLRRQIAQRAVNWGCVLAADELVISNGCTEALQLALRAVCKPGDTVGVESPTYFALLPMLKDLGLAVIEIPTHPTSGLALDALELLLSEKRLNAVVAMPTVHNPLGSTMPPEAKRRLAQLVNDYQVPLIEDVPHAELFYGASTPDAVKAYDRDGWVLLCSSYSKTLAPGFRIGWIAPGRFLSEVRRLKFSSSLGQPALLEETLAEYLESGGYDHHLRLLRRHFISQMEKLRGAVAQHFPDGTRATLPSGGCLLWVELPSHADTMQLFRAALAERITVVPGAMYSAKGRYRNCLRLSCCYPWNEAYQRALIRVGELAGELAEGHEGHHHHHH | soluble
SDIAIHHPWIRRPFFPFHSPSRLFDQFFGEHLLESDLFPTSTSLSPFYLRPPSFLRAPSWFDTGLSEMRLEKDRFSVNLDVKHFSPEELKVKVLGDVIEVHGKHEERQDEHGFISREFHRKYRIPADVDPLTITSSLSSDGVLTVNGPRKQVSGPERTIPITREEKPAVTAAPKK | soluble
MISILRRGLLVLLAAFPLLALAVQTPHEVVQSTTNELLGDLKANKEQYKSNPNAFYDSLNRILGPVVDADGISRSIMTVKYSRKATPEQMQRFQENFKRSLMQFYGNALLEYNNQGITVDPAKADDGKRASVGMKVTGNNGAVYPVQYTLENIGGEWKVRNVIVNGINIGKLFRDQFADAMQRNGNDLDKTIDGWAGEVAKAKQAADNSPEKSVKLEHHHHHH | soluble
MSMKGKETMSKQNEKLVVGKLGSSYGIRGWLKVFSYTDNPESIFDYSPWYIDQKGEWVEYKVEGWKRHNKGWVVKLQGLDVREDAHLLTNFEIAIDPASLPELSEDEFYWRELFGMQVVTTNGYDLGVVTDMMETGSNDVLVVKANLKDAFGQKERLIPFLEEQVIKVVDRQAQRIEVDWDPAF | soluble
MSLTYYLSIDYGGTNTKALIFDKLGHQIAVSSFETLKNETQSGHRQVNLVKTWNAITSAIREVIQISKLSPEQISAVACIGHGKGLYLLDNKLEPLEQGILSTDNRAKDLAQYFESKLDNIWELTRQHIFPSQSPVILRWLKDYQPETYKSIGAVLSAKDFIRYKLTGKVQQEYGDASGNHWINFQTGTYDPAILDFFGIREIENSLPELIDSADLVPGGISSQAAKETGLVEGTPVVGGLFDIDACALGSGVLESDTFSVISGTWNINTYPSLKPAKQDSGLMTSYFPDRRYLLEASSPTSAGNLNFMLKMLMHQEIDNAKSSGGSIYDNLEEFLTHTDATHHGLIFFPFLYGSNTSQDASACFFGLTTKSTKSQMIRAVYEGIAFAHKQHITDLIKSRGSVPKIIRFSGGATNSPAWMQMFSDILNFPIETVEGTELGGLGGAILARHALDKISLKEAVQDMVRVKAIYKPQLSEVKGYKKKYHAYQKLLETLDPIWSELGHLNEGHHHHHH | soluble
MERDTVVKEVVEALKIFSRDIRTQIDEMGSQLRAEIQDTANQLRAEIQDTANQLRAEMQETANQLRAEMQETANQLRAEMQQFRAEVNERFDRLEQKFAGLRVELTETQETVHFLASKTIQHEKKLHHLAKQLESIR | not soluble
MAFKDTFNKMISYFDTDEVNEVEEDVAASTDNVIPRSQQSVRASSHPKQEPRNNHVQQDHQARSQEQTRSQMHPKHGTSERYYQQSQPKEGHEMVDRRKRMSTSGIANRREQYQQSTCSDQTTIALKYPRKYEDAQEIVDLLIVNECVLIDFQFMLDAQARRCLDFIDGASKVLYGSLQKVGSSMYLLAPSNVSVNIEEMTIPHTTQDIGFDFDMKRRLEHHHHHH | not soluble
MGSDKIHHHHHHMSDLPERLHDIIRRRNMVLGPGYQFSETIPVEFVSSFGAHLIDSDGNDYLDAFNNVQGVGHAHRHVADAVARQIAAINTDTRYPQEALVAYAERLLATFPAELSKLSLPCTGSEANDLAVRVARYHTGGEGIIVTRWAFHGRTREVASFSPMLGAGSPLGPNVRLIAAPDPRFCGPQQSLENYMRDQVRSAIVDLERHGYRLAALVADSAFTSDGIFTHPVGFLQAMVDEVHAAGGLHIADEVQSGFAQLGDSMWGFSRHGVVPDIVTMGKAIGNGFPISGVVFRPEVSDEFGQKVSYFNTLGGRSLSIAAASAVLDVFEQENVRERVAVNGAALQSGLETLARESPYVAEIRGSGLYLGVEIVKDRETLEPDPIRCESIIKDLRDRRVLISRTGSSGNVLKVRPPVAFTAADVSRFLETFAIVAKQRL | not soluble
MTRSENFILDFTHIYIDENIEQTENIVRIDCSDILGTDLYCTKEGEAEIQKRIENFSINGVHFIDSGNYHYITKIMTDKINKKFSLVLYDHHTDMQKPMVEGMTSCGDWAAQVIEQNENLEQLILVGASEADIQQINVKNQSKLITFSAEELRNNSGREKLDLIETDVPFYISIDKDILDKHYIETNWSQGHMSLGMLEHLLKFFLKDKKIIGVDICGECQIGLPFPEYIEAEEKNAETNIELYEYIGRYMGK | not soluble
MPLENVMTDLKASSLRALKLMDLTTLNDDDTNEKVIALCHQAKTPVGNTAAICIYPRFIPIARKTLKEQGTPDIRIATVTNFPHGNDDIDIALAETRAAIAYGADEVDVVFPYRALIAGNEQVGFDLVKACKDACAAANVLLKVIIETGELKEEALIRKASEISIKAGADFIKTSTGKVPVNATPESARIMMEVIRDMGVSKTVGFKPAGGVRTAEDAQKFLAIADELFGADWADSRHYRFGASSLLASLLKALGHGDGKSASSY | not soluble
MQFFISSAILFSYAFCQSIPNVILTGEPRVVARRILNVDMKAAQQLALPDDQQHVRYQVNVVRNQENPSDSTYLTGERTPVTVYRRILRPARITFTGDGVITDSWQGTSDAVEMESWTLNRRPTIDGSFVQPTQNQQGAFH | not soluble
MGSDKIHHHHHHAAAPAFSALGDTASSQARHIATVFPGRMTGTPPEMLSADYLRQQFALMGYQSDVRSFNTRYIYTDSNQRKNWHNATGSTVIAAHEGKVRQQIIIMAHLDTYAPQSDKDVENNLGGLTLQGIDDNAMGLGVLLELAEHLKNVPTRYGIRFIATSGEEEGRLGAQNLLQRMSEAEKKNTLLVINLDNLVVGDKLYFNSGRSTPASVRKLTRDRALAIARSKGIAAYTNPGLNPAYPKGTSCCNDASVFDNAGIPVLSVEATNWSLGKKDGYQQRSKSASFPQGTSWHDVQLDNQQYIDHALPGRIEHRGREVVKVMLPLVKELAKVEKKS | not soluble
MLRKLSKFSNKGEVFMGLLEGKRALITGVANERSIAYGIAKSFHREGAQLAFTYATPKLEKRVREIAKGFGSDLVVKCDVSLDEDIKNLKKFLEENWGSLDIIVHSIAYAPKEEFKGGVIDTSREGFKIAMDISVYSLIALTRELLPLMEGRNGAIVTLSYYGAEKVVPHYNVMGIAKAALESTVRYLAYDIAKHGHRINAISAGPVKTLAAYSITGFHLLMEHTTKVNPFGKPITIEDVGDTAVFLCSDWARAITGEVVHVDNGYHIMGVFGREEEIKKEVYGD | soluble
MTAYAKWSSCFQNGIDSWNNLTTTAEFLNHAGNISSNCKIILDLNIVKLSDSKFYISPQVQKSLTHATVGISSNFEAESQLKKVLELSSHHFLICQLFQRLPIINIFGATPKLSERERELFQKIGNYYPVAIGTKSGLVNVTMKPQYNYSLNDSAVPSSKSEFQLDLIYFLKDVLKQDFYYSIWFNIFFDELPNMLHRNRNFDENRITLCQININIDNDQKTNMKQFFKSLISDKRYVIIFEVVNDYGVLFLINFDNTTCRKKLGIVRNV | not soluble
